{"source": "the DeepSol protein solubility set", "data": [{"test": "soluble on expression in E. coli; label from the status in PepcDB or PDB records", "values": [{"sequence": "MGSDKIHHHHHHMRRKDATWILTAQCPSRLGTVDVVTRFLKECRCYITEQQSFDDRHGERFFIRTAFQPEETDFDADTFQAAFAARAAEFDMVFELTAPEARMPVVIMVSKADHCLNDLLYRYRTGQLPVTIRAVISNHPDLEPLVAWHDLPYYHLPITPETKAEQEAEVWRVIESTGAELVILARYMQVLSSELCEKLTGKAINIHHSLLPGFKGAKPYHQAFEKGVKLVGATAHYINDDLDEGPIITQGVEPVSHADDPEDLVAKGRDIECLTLARAVSLHLERRVFLHARRTVVFAR", "soluble on expression in E. coli": "not soluble"}, {"sequence": "MGSDKIHHHHHHMNINQLKTFIVLADCLSVTETSKRLFCTQPAVSIKIRKLEETLNTVLFERINNRLYLTEQGKIFYSYAEQIISTLEMSVEHLHQYDDPNYGKIIIGASHFVGVYLLPQVIAEYRKLSPNVELRLEILSSQQLIQGLENHSIDFIIMSDQIYFDPQKYDVNRFLSDELILIVPPDHVLATYESCHFEQLCDELFIIKPKNSQTRKFLLQQFSKDQISLLKFMEINSLEGIKRCVMNGLGVSIISRFSVENELKMGMLKAVELDSFQFKRGINYIYHKEKCLSSAIGRFIGLLNILK", "soluble on expression in E. coli": "not soluble"}, {"sequence": "MQADFNRPVLAVDTGTSYLSLALRADGETCLFHQEVGSRQSALILPEIRTLFHDAGITAADLGAIVYAKGPGAFTGLRIGIGVAQGLATPFDTPLIGVPSLDAAASLPPPQSCILAAADARMGEVFYAWFDTLNRRRLSDYQVGRAADIRLPEGCAFSDGIGNAFALENRPPFSGKPDMPTAADFLNLAAEGGFPAVAAAHAELLYVRNKIALTAKEQAERRARLLEHHHHHH", "soluble on expression in E. coli": "not soluble"}, {"sequence": "MFSVLLSVYYNESPYYFRQSIDSLFNQSLQLAEVVLVKDGELTPELENVITEYTAKYLQIRVVPLKQNQGLGKALNEGLKHCSYDLVARMDTDDIAKPNRFEKQIRVFQEHPELDVVGAWIDEFEETTSNIISTRKLPEVHDDICQFAKKRNPENHPVIMFRKQAVLAAGGYQHFPLFEDYYLWIRMLQNGAKFYNIQESLLYFRFSSAMFKRRGGLKYVTTELRFQNLLRNLEFITFSEYLYNVFIRVITRMMPNSLRAILYKKALRK", "soluble on expression in E. coli": "not soluble"}, {"sequence": "GSPHMLSGSGLCNSSSALPLYNQQVGDCCIIRVSLDVDNGNMYKSILVTSQDKAPAVIRKAMDKHNLEEEEPEDYELLQILSDDRKLKIPENANVFYAMNSTANYDFVLKKRTFT", "soluble on expression in E. coli": "soluble"}, {"sequence": "MSLPPRPYDNRPPTGVRAKPVINLNIEYTSCNDSVAPACSTRPMLIENMINQRNVNINVLEGYDPKSKSVINQHSIYHLYEFESKTRFLDRIPRPRVSRFTELKTRFLCCRYVLCAIDDVMQKQKPMELMAIRLNGDIYIGANKSMDLQTDKKTQEAAFGGLNFAMKVTRESDQKILKKHHSVVKQLRIENTRNSMSMSIFVSSVARAFDQRGNVVELKTVGSKVMGKVQNLSRLKARDWWLRALLSGADRIVYGLRMDNMKVNEIHEAQLTDFTKGHFRFDGAKLFSEIFKIFSTIDKIIGAEGDMCMVKSDGSTPISVTLTTRESLKRSPFW", "soluble on expression in E. coli": "not soluble"}, {"sequence": "MSLDKNDVVKKILESKKYENLDSDIVEKVVSISEKKYKLKEVENYSKKKLHQIWGSYYSAYPNWDKLLKKYNQGQLSIEDLLKIHSSTNERVATLNDFYTYVFGNIKHVSSILDFGCGFNPLALYQWNENEKIIYHAYDIDRAEIAFLSSIIGKLKTTIKYRFLNKESDVYKGTYDVVFLLKMLPVLKQQDVNILDFLQLFHTQNFVISFPIKSLSGKEKGMEENYQLWFESFTKGWIKILDSKVIGNELVYITSGFQKEGHHHHHH", "soluble on expression in E. coli": "soluble"}, {"sequence": "MIIDINRLDRAFDLIKEGVSKGVFPGAVAAVGTRERVIRLESFGNRCLYPEKLSMNKDTLFDLASLTKVVATNTLFMIFLEKGLISVYDNVSYYLEKFKGKNKDDVTIFNLLTHTAGFVPCKPLYKLCKGYEDSIDYICRCGLSYKPGTKCVYSDFSYILLAYILEKIGGDTLDILCDRYIFKPLYMENTTFKPKGNNIAATEIDKKTKKPLIGVCHDENGRFFGGISGHAGLFSDIYDLCKFSNMLVNEGKGIISYASFKAMTTNHTLGLEDNRGYGWCIKGDKNSFMGDIAFPETFGHNGFTGTSLWVDIKNNIYAILLTNRVHPTRDNLRIIRFRRVFSNAVLASLTR", "soluble on expression in E. coli": "not soluble"}, {"sequence": "MGSDKIHHHHHHMQIESFKSLLPKYKCIFFDAFGVLKTYNGLLPGIENTFDYLKAQGQDYYIVTNDASRSPEQLADSYHKLGLFSITADKIISSGMITKEYIDLKVDGGIVAYLGTANSANYLVSDGIKMLPVSAIDDSNIGEVNALVLLDDEGFNWFHDLNKTVNLLRKRTIPAIVANTDNTYPLTKTDVAIAIGGVATMIESILGRRFIRFGKPDSQMFMFAYDMLRQKMEISKREILMVGDTLHTDILGGNKFGLDTALVLTGNTRIDDAETKIKSTGIVPTHICESAVIEL", "soluble on expression in E. coli": "not soluble"}, {"sequence": "MGSDKIHHHHHHLDRYPQEELSDGSFWKTPDDANKVVSDLYGYLSTWDQDNDINSDNATMGIKWAAGNVSKGIYDPADQGWSGDYANVRQCNLILSKIDEIPDYPEADKTKALGQVYFFRAYIYFNLIRSFGDVPYIDKPLDLKDMEGITRMPRAEVYEKIMADFDKAIAALPTEWGASDYGRVTKGAAMAMKARAALYYGNWDTAATEAKNVMDLGLYELYDKDNTGKYAELFWEKADGCDEFILVTQFNYPDKTHYLMGWECFPTKGWGGMNPTQSLVDAFEDSEGAPISKSKIYDPTDPFKNRDPRLEVDILHDGEEMYGVTIKVAPLASSGSTGINQHNDATETGYYGQKWLDPSLDPLSDGWNMGKDWVHIRYAEVLLTYAEAKNELQGLDPEAFDAVNQVRRRVGMPELQNTDPSKPTYCATQDDLRQRIRNEWRVEFCLEGGKRMWDIRRWGIAKDVLNAPFEGLKYKIVDNPNDPDKKVDGGKMCILYQGDPIILSGSRYSDNNYLFPVPQSEIDLNPALTQNPGY", "soluble on expression in E. coli": "not soluble"}, {"sequence": "MGSDKIHHHHHHFEERSGVVPCGTPWGQWYQTLEEVFIEVQVPPGTRAQDIQCGLQSRHVALAVGGREILKGKLFDSTIADEGTWTLEDRKMVRIVLTKTKRDAANCWTSLLESEYAADPWVQDQMQRKLTLERFQKENPGFDFSGAEISGNYTKGGPDFSNLEKDGT", "soluble on expression in E. coli": "not soluble"}, {"sequence": "MRKLLAVFSKGRWKMEQKLQEQLDGLLEKYTELLLGETNDELKEEVKQWILYTHIAKSMPPLAKHWNATYPDAKQGIKEIIQHIKELNEAHRNKQLEHHHHHH", "soluble on expression in E. coli": "soluble"}, {"sequence": "MGPLCAVCESPTAFTLHFGGRCCKACAAFFRRTIALDLKYECAADDPCEIHFKFPGMRLVCRECRLRKCYSAGMRSELVRSKRENFACTRRKDSRNNSDAAPNSNSPSTRQSSSPEEMDDWSFQMFEEKPKIEDLPLTPSISHPPLPTQLMPEESSRTSSFDGGYCSSYPSSSAATHPSPPGMLYSIENNSILQYYHSMETGLCSKRRIMYTNTGMDFILDTHANLQCPFTVNDLRPHDYRNFRGMLRHDFVMLFDYATRFPEFNSFTSHEKNMFYRQIVAVDFILSSAYYTAKLGQAHRQMVLTNGEYLNMDPLPMSGNEIDARRYFDCDEDFSKYRALMPMHIAIWEESIVPFSKLNVTFEEFCLLKALTVWQATYFKLTENGREKCRRQRNIIIGFLSKMCHSPGGGGEHRVGELLMSMNYLRESAQKLTTSYVMLTVFNVLNCDSMLHEMLNFQY", "soluble on expression in E. coli": "not soluble"}, {"sequence": "MSLCVFLTSEVNMGLFNFVKDAGEKLWDAVTANHDKDDQAKKVQEHLNKTGIPDTDKVNVQIADGKATVTGDGLSQEAKEKILVAVGNIAGISSVDDQVKTTTPAAESQFYTVKSGDTLSAISKQVYGNANLYNKIFEANKPMLKSPEKIYPGQVLRIPEEGHHHHHH", "soluble on expression in E. coli": "not soluble"}, {"sequence": "GMENIEYVFEDVVRIYDTDAQGIAHYAAYYRFFTNTIEKFIKEKVGIPYPIVNENLWFVIAESHAIYHRPVKLGDKLTVLLNPKILSNKTIKFEFKVLKDGELTTEGYVIQIAINPKIWKSTEMPKEIMDKLSIK", "soluble on expression in E. coli": "soluble"}, {"sequence": "MFMEVSLTSLPAHVMNALDAIWEGSIADSLESETLEFKEDPSCAGRGKQHGNPQAALIEKLIDEAVCLANGDAGTGHIVVGIKDKIGGPEAFTGTTFDTEKIAKKIFDGTRPNLRPEVHEVRYQNNRLIVIYIPEALSLYSRSKGQTSKRVGSHCEPLSEEQRRAIAATRAHADYSNGISEFNVDDIAADTIQEVRRLLKTKRAQSGIDTSLPTTTNGLLRELGLIDNYGALKRAGAILLLPAPEGQLSIRHFWRSFPGIDPEVTDYNQPLLIALSSLKRRITENANKEIKRIQFSDGQEIAVSAFPQTAVDEVVTNAIIHRDWRLSRPVVIDQSPQTLKVWSPGSLPVGVTPNRLLTTQSIPRNSRLMSAMRMLGLAEESSRGFDRIWAALLGSGRDIPDVHTEDTFVEVILHSGNPDESFIKALHELSLSFNPDMLHSVNTLIVLWHLWTSPVISLKQARVKTQTSSKEATELMFALESNGLLTQIHNTDEWFLSEKARKTTNYYQSETIPQSSVQTWVEEKLSSGSPISAAEIAESIGMPRPEITEILRNLRRAGKAHIDPSGPQRGSGTRWIKGT", "soluble on expression in E. coli": "not soluble"}, {"sequence": "MGSDKIHHHHHHMNTLKKITNNISKVIIGKDESIELAAIALIAKGHILLEDVPGTGKTTLAKSLAKSVDAKFQRIQFTADTLPGDVIGLEYFNVKESDFKTRLGPIFANIVLVDEINRAVPRTQSSLLEVMEERTVTIAKQTHSLPEPFLVIATQNPLESAGTFPLPDAQLDRFLLTIRQGYPTREAEKEMMNRFQMNDPLETLHSIISSEEIITMQKRAREVLVGNDVQDYLLEIIEATRKHELIEIGVSPRGTLAFMRAIQARAILNERDYCTPDDIKQLAASICTHRLTLTIEGEMKTTKEQIMKEILHTIDVPVENVR", "soluble on expression in E. coli": "not soluble"}, {"sequence": "MSLSGTITFSTGTRAGVYQKYGELLRTELRKDMPGLDVRLMTSAGSQENVERVASGEADFTIAAADAVETYKLAGSPGAEGLRGVTRLYDDYVQLVVPSDSDIQSVRDLRGKRVAIGLPNSGVRLIATRLLKAVGIDPETDITPRADGIDTGPGRLGDELDAFFWSGGVPTDGLKEIAESSAFRFVPIGDDLVTKLHRSGGATRYYRTTNMPESAYPTVQNGAVVPTMAVSNLLVTRADVDPRLTEWLTRTVLDSRDGIGAHVHSAQLVDLRTAIYTDPLELHEGARRYYRSVKEGHHHHHH", "soluble on expression in E. coli": "soluble"}, {"sequence": "MGSDKIHHHHHHMLEIIMSSIKSRQLTHSALASNIDIHDVTHFLLELDALKRVNRRSYVTGANRLENSAEHSWHLAMACWSIAELFELDVNQEKLLKMALVHDLGEIDAGDTFLYADTRGDAHLEERAGIARLQGERGNGISNLNEIWEEQETGSSTETQLLKVVDRLLPFLLNLNTNGKTWIELSVTRSQVSEAHAFIKDSFPSIHDWLAAQIEFATQQGWLIDT", "soluble on expression in E. coli": "not soluble"}, {"sequence": "MGSDKIHHHHHHMLQLNSPHVHNLFNTPFSAAIMDDVVIGLEVHVQLNRLRTKLFCSCPLNYHQSPPNTHVCPVCLGMPGAMPVINKEAVKAAVKVAMALNAEIQPFTVFDRKNYFYPDLPKGFQISQYDRPLALGGYVTIELDGQEKRIQLKRVHMEEDPGKLSYKGSITTAKYSLIDYNRSGAPLLEIVTEPVMNSPKEARLFLNKLRMILEYLEVFDGDLEGAMRVDANISIRGSGRVEIKNISSFKGVEKALSYEIMRQKNLLQRGRSVVRETRHFDEARNITVSLRSKEEEQDYRYFPEPDLVPVLTEEIVREVEGTLPEMPEEKRERLKRQYGIGDNFAKVLILDVKMADYFEEVAKLVDPKLAASWIVDVLRGELNYRDWSFAKCWEVFKPEEFAKLLKYFEEDRITEKGVVEVIRTKLDEGGEIDAIIQKKGLFAIPKEEIIKFCKEAIEENPKAVEDYLSGKRQALNFLVGQVMKKTRGRADPADTAKLIEEMLS", "soluble on expression in E. coli": "not soluble"}]}]}
